Measurements from publication PMC7845616, “Convergent Evolution of a Promiscuous 3-Hydroxypropionyl-CoA Dehydratase/Crotonyl-CoA Hydratase in Crenarchaeota and Thaumarchaeota” (mSphere, 2021).

Columns and labels:
[1] = substrate: C=C(C)C(=O)SCCNC(=O)CCNC(=O)[C@H](O)C(C)(C)COP(=O)(O)OP(=O)(O)OC[C@H]1O[C@@H](n2cnc3c(N)ncnc32)[C@H](O)[C@@H]1OP(=O)(O)O; test: UHPLC of 3-hydroxy-2-methylpropionyl-CoA formed; format: biochemical, Metallosphaera sedula; conditions: 100 mM Tris-HCl pH 7.8, 65°C
Description: UHPLC of 3-hydroxy-2-methylpropionyl-CoA formed on Msed_0566

[2] = substrate: C/C=C/C(=O)SCCNC(=O)CCNC(=O)[C@H](O)C(C)(C)COP(=O)(O)OP(=O)(O)OC[C@H]1O[C@@H](n2cnc3c(N)ncnc32)[C@H](O)[C@@H]1OP(=O)(O)O; test: UHPLC of 3-hydroxybutyryl-CoA formed; format: biochemical, Metallosphaera sedula; conditions: 100 mM Tris-HCl pH 7.8, 65°C
Description: UHPLC of 3-hydroxybutyryl-CoA formed on Msed_0566

[3] = substrate: CCCCC/C=C/C(=O)SCCNC(=O)CCNC(=O)[C@H](O)C(C)(C)COP(=O)(O)OP(=O)(O)OC[C@H]1O[C@@H](n2cnc3c(N)ncnc32)[C@H](O)[C@@H]1OP(=O)(O)O; test: UHPLC of 3-hydroxyoctanoyl-CoA formed; format: biochemical, Metallosphaera sedula; conditions: 100 mM Tris-HCl pH 7.8, 65°C
Description: UHPLC of 3-hydroxyoctanoyl-CoA formed on Msed_0566

[4] = substrate: C=CC(=O)SCCNC(=O)CCNC(=O)[C@H](O)C(C)(C)COP(=O)(O)OP(=O)(O)OC[C@H]1O[C@@H](n2cnc3c(N)ncnc32)[C@H](O)[C@@H]1OP(=O)(O)O; test: UHPLC of 3-hydroxypropionyl-CoA formed; format: biochemical, Metallosphaera sedula; conditions: 100 mM Tris-HCl pH 7.8, 65°C
Description: UHPLC of 3-hydroxypropionyl-CoA formed on Msed_0566

[5] = substrate: CCCCC/C=C/C(=O)SCCNC(=O)CCNC(=O)[C@H](O)C(C)(C)COP(=O)(O)OP(=O)(O)OC[C@H]1O[C@@H](n2cnc3c(N)ncnc32)[C@H](O)[C@@H]1OP(=O)(O)O; test: UHPLC of 3-hydroxyoctanoyl-CoA formed; format: biochemical, Metallosphaera sedula; conditions: 100 mM Tris-HCl pH 7.8, 65°C; remark: listed apart in the source
Description: UHPLC of 3-hydroxyoctanoyl-CoA formed on Msed_2001

[6] = substrate: CC(C)(COP(=O)(O)OP(=O)(O)OC[C@H]1O[C@@H](n2cnc3c(N)ncnc32)[C@H](O)[C@@H]1OP(=O)(O)O)[C@@H](O)C(=O)NCCC(=O)NCCSC(=O)CCO; test: dehydration coupled to Ccr, UHPLC; format: biochemical, Metallosphaera sedula; conditions: 100 mM Tris-HCl pH 7.8, 42°C, 1 mM NADPH, 50 mM NaHCO3, Ccr
Description: (§1) dehydration coupled to Ccr, UHPLC on Msed_2001

[7] = substrate: C[C@H](O)CC(=O)SCCNC(=O)CCNC(=O)[C@H](O)C(C)(C)COP(=O)(O)OP(=O)(O)OC[C@H]1O[C@@H](n2cnc3c(N)ncnc32)[C@H](O)[C@@H]1OP(=O)(O)O; test: dehydration coupled to Ccr, UHPLC; format: biochemical, Metallosphaera sedula; conditions: 100 mM Tris-HCl pH 7.8, 42°C, 1 mM NADPH, 50 mM NaHCO3, Ccr
Description: as §1

[8] = substrate: C=CC(=O)SCCNC(=O)CCNC(=O)[C@H](O)C(C)(C)COP(=O)(O)OP(=O)(O)OC[C@H]1O[C@@H](n2cnc3c(N)ncnc32)[C@H](O)[C@@H]1OP(=O)(O)O; test: UHPLC of 3-hydroxypropionyl-CoA formed; format: biochemical, Metallosphaera sedula; conditions: 100 mM Tris-HCl pH 7.8, 65°C; remark: listed apart in the source
Description: UHPLC of 3-hydroxypropionyl-CoA formed on Msed_2001

[9] = substrate: C/C=C/C(=O)SCCNC(=O)CCNC(=O)[C@H](O)C(C)(C)COP(=O)(O)OP(=O)(O)OC[C@H]1O[C@@H](n2cnc3c(N)ncnc32)[C@H](O)[C@@H]1OP(=O)(O)O; test: UHPLC of 3-hydroxybutyryl-CoA formed; format: biochemical, Metallosphaera sedula; conditions: 100 mM Tris-HCl pH 7.8, 65°C; remark: listed apart in the source
Description: UHPLC of 3-hydroxybutyryl-CoA formed on Msed_2001

[10] = substrate: CCCCC/C=C/C(=O)SCCNC(=O)CCNC(=O)[C@H](O)C(C)(C)COP(=O)(O)OP(=O)(O)OC[C@H]1O[C@@H](n2cnc3c(N)ncnc32)[C@H](O)[C@@H]1OP(=O)(O)O; test: UHPLC of 3-hydroxyoctanoyl-CoA formed; format: biochemical, Nitrosopumilus maritimus; conditions: 100 mM Tris-HCl pH 7.8, 30°C
Description: UHPLC of 3-hydroxyoctanoyl-CoA formed on Nmar_1308

[11] = substrate: C=CC(=O)SCCNC(=O)CCNC(=O)[C@H](O)C(C)(C)COP(=O)(O)OP(=O)(O)OC[C@H]1O[C@@H](n2cnc3c(N)ncnc32)[C@H](O)[C@@H]1OP(=O)(O)O; test: UHPLC of 3-hydroxypropionyl-CoA formed; format: biochemical, Nitrosopumilus maritimus; conditions: 100 mM Tris-HCl pH 7.8, 30°C
Description: UHPLC of 3-hydroxypropionyl-CoA formed on Nmar_1308

[12] = substrate: C/C=C/C(=O)SCCNC(=O)CCNC(=O)[C@H](O)C(C)(C)COP(=O)(O)OP(=O)(O)OC[C@H]1O[C@@H](n2cnc3c(N)ncnc32)[C@H](O)[C@@H]1OP(=O)(O)O; test: UHPLC of 3-hydroxybutyryl-CoA formed; format: biochemical, Nitrosopumilus maritimus; conditions: 100 mM Tris-HCl pH 7.8, 30°C
Description: UHPLC of 3-hydroxybutyryl-CoA formed on Nmar_1308

[13] = substrate: CC(C)(COP(=O)(O)OP(=O)(O)OC[C@H]1O[C@@H](n2cnc3c(N)ncnc32)[C@H](O)[C@@H]1OP(=O)(O)O)[C@@H](O)C(=O)NCCC(=O)NCCSC(=O)CCO; test: dehydration coupled to Ccr, UHPLC; format: biochemical, Nitrosopumilus maritimus; conditions: 100 mM Tris-HCl pH 7.8, 30°C, 1 mM NADPH, 50 mM NaHCO3, Ccr
Description: (§2) dehydration coupled to Ccr, UHPLC on Nmar_1308

[14] = substrate: C[C@H](O)CC(=O)SCCNC(=O)CCNC(=O)[C@H](O)C(C)(C)COP(=O)(O)OP(=O)(O)OC[C@H]1O[C@@H](n2cnc3c(N)ncnc32)[C@H](O)[C@@H]1OP(=O)(O)O; test: dehydration coupled to Ccr, UHPLC; format: biochemical, Nitrosopumilus maritimus; conditions: 100 mM Tris-HCl pH 7.8, 30°C, 1 mM NADPH, 50 mM NaHCO3, Ccr
Description: as §2

[15] = substrate: C=CC(=O)SCCNC(=O)CCNC(=O)[C@H](O)C(C)(C)COP(=O)(O)OP(=O)(O)OC[C@H]1O[C@@H](n2cnc3c(N)ncnc32)[C@H](O)[C@@H]1OP(=O)(O)O; test: UHPLC of 3-hydroxypropionyl-CoA formed; format: biochemical, Syntrophothermus lipocalidus; conditions: 100 mM Tris-HCl pH 7.8, 42°C
Description: UHPLC of 3-hydroxypropionyl-CoA formed on Slip_2089

[16] = substrate: CC(C)(COP(=O)(O)OP(=O)(O)OC[C@H]1O[C@@H](n2cnc3c(N)ncnc32)[C@H](O)[C@@H]1OP(=O)(O)O)[C@@H](O)C(=O)NCCC(=O)NCCSC(=O)CCO; test: dehydration coupled to Ccr, UHPLC; format: biochemical, Syntrophothermus lipocalidus; conditions: 100 mM Tris-HCl pH 7.8, 42°C, 1 mM NADPH, 50 mM NaHCO3, Ccr
Description: (§3) dehydration coupled to Ccr, UHPLC on Slip_2089

[17] = substrate: C[C@H](O)CC(=O)SCCNC(=O)CCNC(=O)[C@H](O)C(C)(C)COP(=O)(O)OP(=O)(O)OC[C@H]1O[C@@H](n2cnc3c(N)ncnc32)[C@H](O)[C@@H]1OP(=O)(O)O; test: dehydration coupled to Ccr, UHPLC; format: biochemical, Syntrophothermus lipocalidus; conditions: 100 mM Tris-HCl pH 7.8, 42°C, 1 mM NADPH, 50 mM NaHCO3, Ccr
Description: as §3

[18] = substrate: CCCCC/C=C/C(=O)SCCNC(=O)CCNC(=O)[C@H](O)C(C)(C)COP(=O)(O)OP(=O)(O)OC[C@H]1O[C@@H](n2cnc3c(N)ncnc32)[C@H](O)[C@@H]1OP(=O)(O)O; test: UHPLC of 3-hydroxyoctanoyl-CoA formed; format: biochemical, Syntrophothermus lipocalidus; conditions: 100 mM Tris-HCl pH 7.8, 42°C
Description: UHPLC of 3-hydroxyoctanoyl-CoA formed on Slip_2089

[19] = substrate: C=C(C)C(=O)SCCNC(=O)CCNC(=O)[C@H](O)C(C)(C)COP(=O)(O)OP(=O)(O)OC[C@H]1O[C@@H](n2cnc3c(N)ncnc32)[C@H](O)[C@@H]1OP(=O)(O)O; test: UHPLC of 3-hydroxy-2-methylpropionyl-CoA formed; format: biochemical, Syntrophothermus lipocalidus; conditions: 100 mM Tris-HCl pH 7.8, 42°C
Description: UHPLC of 3-hydroxy-2-methylpropionyl-CoA formed on Slip_2089

[20] = substrate: C/C=C/C(=O)SCCNC(=O)CCNC(=O)[C@H](O)C(C)(C)COP(=O)(O)OP(=O)(O)OC[C@H]1O[C@@H](n2cnc3c(N)ncnc32)[C@H](O)[C@@H]1OP(=O)(O)O; test: UHPLC of 3-hydroxybutyryl-CoA formed; format: biochemical, Syntrophothermus lipocalidus; conditions: 100 mM Tris-HCl pH 7.8, 42°C
Description: UHPLC of 3-hydroxybutyryl-CoA formed on Slip_2089

B1: Msed_0566 (Metallosphaera sedula DSM 5348) (protein)
chain: MDVILEKRKGYLLLTFNTGGRYNVFTTRFMIEMIDTLSEVEKIRDPHYLVIKGENGNFGAGADVKELLKANGDKEYAKVYFGHMKDLFVKMLSLNKVTIGLIEGVAYGASMELLLALDIVIAKRGTKFAAPGGKLGVFPPVLVSIGPYLLGHRTSRKLAMLGEELDTQGAINAGLIDYEVDDLEKGLLELLNRLKVMSPSAQVRMRKLILQSLIPHLEKAFDELATQVTSDEAREGISSFFSKTSPSWSSVGFS
notes: pET16b, His10-tagged, expressed in E. coli Rosetta 2 (DE3), Ni-NTA purified
Km [1]: 140 ± 30 µM | kcat/Km [1]: 2000 M⁻¹ s⁻¹ | Km [2]: 80 ± 30 µM | kcat/Km [2]: 19000 M⁻¹ s⁻¹ | Km [3]: 180 ± 60 µM | kcat/Km [3]: 16000 M⁻¹ s⁻¹ | Km [4]: 37 ± 2 µM | kcat/Km [4]: 39000 M⁻¹ s⁻¹

B2: Msed_2001 (Metallosphaera sedula DSM 5348) (protein)
chain: MEFETIETKKEGNLFWITLNRPDKLNALNAKLLEELDRAVSQAESDPEIRVIIITGKGKAFCAGADITQFNQLTPAEAWKFSKKGREIMDKIEALSKPTIAMINGYALGGGLELALACDIRIAAEEAQLGLPEINLGIYPGYGGTQRLTRVIGKGRALEMMMTGDRIPGKDAEKYGLVNRVVPLANLEQETRKLAEKIAKKSPISLALIKEVVNRGLDSPLLSGLALESVGWGVVFSTEDKKEGVSAFLEKREPTFKGK
notes: pET16b, N-terminal His10-tag, expressed in E. coli Rosetta 2 (DE3), heat precipitation and Ni-NTA purified
Km [5]: 48 ± 5 µM | kcat/Km [5]: 3.94e+07 M⁻¹ s⁻¹ | Km [6]: 160 ± 20 µM | kcat/Km [6]: 3.26e+06 M⁻¹ s⁻¹ | Km [7]: 34 ± 4 µM | kcat/Km [7]: 4.38e+07 M⁻¹ s⁻¹ | Km [8]: 140 ± 10 µM | kcat/Km [8]: 9.94e+07 M⁻¹ s⁻¹ | Km [9]: 80 ± 10 µM | kcat/Km [9]: 3.16e+07 M⁻¹ s⁻¹

B3: Nmar_1308 (Nitrosopumilus maritimus SCM1) (protein)
chain: MSLVTTSTSDGICTVKINRPDKLNAMNTDVAKELIKTFEELNHNDDVKVIILTGEGEKAFSAGADIEYMSKISADESVEYAKTGQLVTATVELVKQPTIAAVNGFALGGGCELAMSCDIRIAADTAKLGQPEVTIGVPPGWGGTQRLMRIVGIAKAKELVYTGKMIKAEEAKEIGLVNHVVPLASLQEEALKMAQQIAGNSTMGVQMSKVAINKGRNADLDTGLGLEILAWRNCFTHPDRQERMTAFVNKSKK
notes: as for B1
Km [10]: 120 ± 20 µM | Vmax [10]: 47 µmol/min/mg | kcat/Km [10]: 198000 M⁻¹ s⁻¹ | Km [11]: 710 ± 70 µM | Vmax [11]: 11400 ± 392 µmol/min/mg | kcat/Km [11]: 8.09e+06 M⁻¹ s⁻¹ | Km [12]: 450 ± 30 µM | Vmax [12]: 3790 ± 111 µmol/min/mg | kcat/Km [12]: 4.25e+06 M⁻¹ s⁻¹ | Km [13]: 170 ± 30 µM | Vmax [13]: 38 µmol/min/mg | kcat/Km [13]: 113000 M⁻¹ s⁻¹ | Km [14]: 360 ± 60 µM | Vmax [14]: 1520 ± 92 µmol/min/mg | kcat/Km [14]: 2.12e+06 M⁻¹ s⁻¹

B4: Slip_2089 (Syntrophothermus lipocalidus DSM 12680) (protein)
chain: MEDKQKSVKCSIDDQGIAIVTINRPHALNALNREVFTELGKVFDELRDNPRARVVVLTGEGQKAFAAGSDITEMKECSVLEAREFAMLANRTQGKIETFPKPVIAAVNGFALGGGCEVAMACDIRIASSNAKFGQPEINLGIIPGGGGTQRLARLVGLGRAKELVYSGGIIDAQRAYEIGLVNKVVPAEALMSEALGLAAKIASKSMPVLMLAKVAFNHGFSMDLDKALQFEIECFAECFGTDDHTEGMSAFIERREPAFKDK
notes: as for B1
Km [15]: 400 ± 50 µM | kcat/Km [15]: 138000 M⁻¹ s⁻¹ | Km [16]: 350 ± 60 µM | kcat/Km [16]: 2000 M⁻¹ s⁻¹ | Km [17]: 1310 ± 310 µM | kcat/Km [17]: 41000 M⁻¹ s⁻¹ | Km [18]: 210 ± 40 µM | kcat/Km [18]: 562000 M⁻¹ s⁻¹ | Km [19]: 1010 ± 220 µM | kcat/Km [19]: 500 M⁻¹ s⁻¹ | Km [20]: 160 ± 20 µM | kcat/Km [20]: 143000 M⁻¹ s⁻¹
